Laboratory results as given in patent US20230235054A1 (BIOATLA, published 2023).
Values belong to the binder of their own block, whether it stands above or below them.

Key:
huNectin4-His [1] = biological target: T1, huNectin4-His (human, UniProt Q96NY8 32-349); assay: SPR, huNectin4-His immobilized, pH 6.0
T1 construct: Immobilized on the SPR chip; also called humanNectin4; human Nectin4; not shown: His tag
T1 sequence (looked up): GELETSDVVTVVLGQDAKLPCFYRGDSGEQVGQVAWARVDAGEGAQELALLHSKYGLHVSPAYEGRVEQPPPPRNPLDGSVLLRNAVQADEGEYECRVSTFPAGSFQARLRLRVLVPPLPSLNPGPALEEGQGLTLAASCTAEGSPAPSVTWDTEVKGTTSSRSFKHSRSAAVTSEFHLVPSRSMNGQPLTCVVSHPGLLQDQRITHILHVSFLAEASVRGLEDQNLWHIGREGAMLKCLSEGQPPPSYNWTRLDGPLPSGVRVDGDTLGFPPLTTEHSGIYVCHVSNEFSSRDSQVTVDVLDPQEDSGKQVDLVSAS
Method: (§1) Binding kinetics of anti-Nectin4 antibodies were measured by surface plasmon resonance using a SPR2/4 instrument (Sierra Sensors, Hamburg, Germany) and flat amine sensor chips. The SPR sensor contained four flow cells (FC1-FC4), each of which was addressed individually or in groups. huNectin4-His was immobilized in FC2, and cynoNectin4-mFc in FC4. No protein was immobilized in FC1 and FC3 which were used as control surfaces for FC2 and FC4, respectively.
(§2) All injections were done at a flow rate of 25 μL/min at 25° C. The sensor surface was activated with 1-ethyl-3-(3-dimethylaminopropyl)-carbodiimide (EDC) and N-hydroxysuccinimide (NHS) (200 mM/50 mM) for 480 seconds. HuNectin4-His (2 μg/mL in 10 mM NaAc, pH4.5) was injected for 480s and the surface was inactivated by injecting 1M ethanolamine-HCl for 480s. CynoNectin4 was immobilized using the same conditions as described for huNectin4-His, except that the cynoNectin4 was diluted into 10 mM NaAc buffer having pH 5.0. The control surface was activated and deactivated using the same conditions, but without injecting protein. PBST buffer (PBS pH 7.4 with 0.05% TWEEN20™) was used as running buffer for the surface preparation. The running solution was switched to PBST with 30 mM sodium bicarbonate with the pH adjusted as indicated in the figures before the analyte injections. The instrument was equilibrated with the running solution for one hour before the first analyte injection.
(§3) The off-rate was measured for 360s. The chip surface was regenerated after each cycle of interaction analysis by injecting 6 μL of 10 mM glycine (pH 2.0). Flow cells 1 and 3 without immobilized protein were used as control surfaces for reference subtraction.

cynoNectin4-mFc [2] = biological target: T2, cynoNectin4-mFc (cyno, UniProt A0A2K5WES1 32-349); assay: SPR, cynoNectin4-mFc immobilized, pH 6.0
T2 construct: Immobilized on the SPR chip; also called cyanoNectin4; not shown: mFc (mouse Fc)
T2 sequence: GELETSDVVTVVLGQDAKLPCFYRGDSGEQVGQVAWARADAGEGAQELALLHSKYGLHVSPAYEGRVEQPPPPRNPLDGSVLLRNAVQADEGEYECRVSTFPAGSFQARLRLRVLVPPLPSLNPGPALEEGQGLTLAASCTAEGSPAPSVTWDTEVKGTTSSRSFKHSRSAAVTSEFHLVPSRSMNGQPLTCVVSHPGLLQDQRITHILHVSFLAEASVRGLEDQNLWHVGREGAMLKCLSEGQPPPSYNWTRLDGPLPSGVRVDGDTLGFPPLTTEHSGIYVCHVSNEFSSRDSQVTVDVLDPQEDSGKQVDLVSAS
Method: as §1, §2, §3

cynoNectin4-mFc [3] = biological target: T2, cynoNectin4-mFc; assay: SPR, cynoNectin4-mFc immobilized, pH 7.4
Method: as §1, §2, §3

huNectin4-His [4] = biological target: T1, huNectin4-His; assay: SPR, huNectin4-His immobilized, pH 7.4
Method: as §1, §2, §3

[5] = biological target: T3, recombinant human Nectin4 antigen (human, UniProt Q96NY8 32-349); assay: ELISA, coated antigen, PSB pH 6.0
T3 construct: construct not described
T3 sequence (looked up): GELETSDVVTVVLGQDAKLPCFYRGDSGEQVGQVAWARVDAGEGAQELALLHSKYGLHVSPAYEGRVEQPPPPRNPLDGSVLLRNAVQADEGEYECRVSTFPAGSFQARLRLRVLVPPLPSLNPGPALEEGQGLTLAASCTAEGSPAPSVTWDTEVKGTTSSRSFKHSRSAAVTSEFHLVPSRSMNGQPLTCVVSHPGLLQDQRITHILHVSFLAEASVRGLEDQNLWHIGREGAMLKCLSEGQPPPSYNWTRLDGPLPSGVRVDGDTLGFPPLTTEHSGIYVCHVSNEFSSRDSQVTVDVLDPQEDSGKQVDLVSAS
Method: (§4) 1) Coat ELISA plates with 100 μL of 1 μg/mL recombinant human Nectin4 antigen or cynoNectin4 antigen in carbonate-bicarbonate coating buffer. […] 2) Cover plates with sealing film and incubate overnight at 4° C. [0444] 3) Decant plates and tap out residual liquid on a stack of paper towels. [0445] 4) Wash wells twice by dispensing 200 μL of pH 6.0 or pH 7.4 ELISA incubation buffer to the wells and completely aspirate the contents. [0446] 5) Add 200 μL of pH 6.0 or pH 7.4 ELISA incubation buffer to the wells. Cover with sealing film and place the plate onto a plate shaker set to 50 rpm for 60 minutes at room temperature. [0447] 6) Decant plates and tap out residual liquid on a stack of paper towels. […] 7) Serially dilute test articles in 3-fold dilutions starting at 3000 ng/mL in pH 6.0 or pH 7.4 ELISA incubation buffer. […] 8) Add 100 μL/well of diluted test articles to the plates [0450] 9) Cover with sealing film and place the plates onto a plate shaker set to 50 rpm for 60 minutes at room temperature. [0451] 10) Decant plates and tap out residual liquid on a stack of paper towels. [0452] 11) Wash wells three times by dispensing 200 μL of pH 6.0 or pH 7.4 ELISA wash buffer to the wells and completely aspirate the contents. […] 12) Dilute the HRP secondary antibody at 1:2500 in pH 6.0 or pH 7.4 ELISA incubation buffer. [0454] […] 14) Cover with sealing film and place the plates onto a plate shaker set to 50 rpm for 60 minutes at room temperature. […] 15) Decant plates and tap out residual liquid on a stack of paper towels. […] 16) Wash wells three times by dispensing 200 μL of pH 6.0 or pH 7.4 ELISA wash buffer to the wells and completely aspirate the contents. [0458] 17) Dispense 50 μL per well of the TMB substrate solution into all wells of the plates.

cynoNectin4 antigen = biological target: T4, cynoNectin4 antigen (cynomolgus (cyno), UniProt A0A2K5WES1 32-349); assay: ELISA, coated antigen, PSB pH 7.4
T4 construct: construct not described; also called cynomolgus (cyno) Nectin-4
T4 sequence: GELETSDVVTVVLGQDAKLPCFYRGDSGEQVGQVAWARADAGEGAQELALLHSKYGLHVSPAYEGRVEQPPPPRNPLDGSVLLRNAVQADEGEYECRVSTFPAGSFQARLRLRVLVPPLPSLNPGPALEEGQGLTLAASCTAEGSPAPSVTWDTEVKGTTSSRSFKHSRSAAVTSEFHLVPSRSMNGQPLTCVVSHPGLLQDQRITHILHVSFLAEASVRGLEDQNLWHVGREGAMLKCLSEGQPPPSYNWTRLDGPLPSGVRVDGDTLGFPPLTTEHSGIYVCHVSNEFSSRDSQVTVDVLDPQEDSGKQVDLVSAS
Method: as §4

[6] = biological target: T3, recombinant human Nectin4 antigen; assay: ELISA, coated antigen, PSB pH 7.4
Method: as §4

- Kd (huNectin4-His [1]): 0.739 nM
- koff (huNectin4-His [1]): 0.000771 s⁻¹
- kon (huNectin4-His [1]): 1.04e+06 M⁻¹ s⁻¹
- Kd (cynoNectin4-mFc [2]): 1.85 nM
- koff (cynoNectin4-mFc [2]): 0.00142 s⁻¹
- kon (cynoNectin4-mFc [2]): 769000 M⁻¹ s⁻¹
- Kd (cynoNectin4-mFc [3]): 3.25 nM
- koff (cynoNectin4-mFc [3]): 0.000781 s⁻¹
- kon (cynoNectin4-mFc [3]): 240000 M⁻¹ s⁻¹
- Kd (huNectin4-His [4]): 1.81 nM
- koff (huNectin4-His [4]): 0.000517 s⁻¹
- kon (huNectin4-His [4]): 285000 M⁻¹ s⁻¹
B1: BAP-143-00-01 (antibody, V domains shown)
VH: EVQLVESGGGLVQPGGSLRLSCAASGFTFSSYNMNWVRQAPGKGLEWVSYISSSSSTIYYADSVKGRFTISRDNAKNSLSLQMNSLRDEDTAVYYCARAYYYGMDVWGQGTTVTVSS
VL: DIQMTQSPSSVSASVGDRVTITCRASQGISGWEAWYQQKPGKAPKFLIYAASTLQSGVPSRFSGSGSGTDFTLTISSLQPEDFATYYCQQANSFPPTFGGGTKVEIK
notes: Used as a conjugate with a linker payload (CAB ADC)

- EC50 [5]: 0.0575 µg/mL
- EC50 (cynoNectin4 antigen): 0.0723 µg/mL
B2: BAP-143-06-33-03 (antibody, V domains shown)
VH: QVQLVQSGAEVKKPGASVKVSCKASGFTFSSYNMNWVRQARGQRLEWIGYISSSSSTIYYADSVKGRFTISRDNSKNTLYLQMNSLRAEDTAVYYCARAYYYGMDKWGQGTLVTVSS
VL: DIQMTQSPSSVSASVGDRVTITCRASQGISGWLAWYQQKPGKAPKFLIYAASTLQSGVPSRFSGSGSGTDFTLTISSLQPEDFATYYCQQANSEPPTFGGGTKVEIK
notes: as for B1

- EC50 [6]: 0.245 µg/mL
B3: BAP-143-00-03 (antibody, V domains shown)
VH: EVQLVESGGGLVQPGGSLRLSCAASGFTFSSYNMNWVRQAPGKGLEWVSYISSSSSTIYYADSVKGRFTISRDNAKNSLSLQMNSLRDEDTAVYYCARAYYYGMDVWGQGTTVTVSS
VL: DIQMTQSPSSVSASVGDRVTITCRASQGISGWLAWYQQKPGKAPKFLIYAASTLQSGVPSRFSGSGSGTDFTLTISSLQPEDFATYYCQQANSFPDTFGGGTKVEIK
notes: as for B1

- EC50 [6]: 0.0698 µg/mL
B4: BAP-143-00-06 (antibody, V domains shown)
VH: EVQLVESGGGLVQPGGSLRLSCAASGFTFSSYNMNWVRQAPGKGLEWVSYISSSSSTIYYADSVKGRFTISRDNAKNSLSLQMNSLRDEDTAVYYCARAYYYGDDVWGQGTTVTVSS
VL: DIQMTQSPSSVSASVGDRVTITCRASQGISGWLAWYQQKPGKAPKFLIYAASTLQSGVPSRFSGSGSGTDFTLTISSLQPEDFATYYCQQANSFPPTFGGGTKVEIK
notes: as for B1
